In US20150165065A1 (AVIDBIOTICS, published 2015):
Changes are numbered by the printed parent chain.

B1: soluble MICA generated from pKK131 (loop 1 extended 5.1sp, loop 3 extended 5.1spNH) (designed binder)
chain: HHHHHHEPHSLRYNLTVLSWDGSVQSGFLTEVHLDGQPFLRCDRQKCRAKPQGQWAEDVLGNKTWDRETRDLTGNGKDLRMTLAHIKDQKEGLHSLQEIRVCEIHEDNSTRSSQHFYYDGELFLSQNLETEEWTMPQSSRAQTLAMNVRNFLKEDAMKTKTHYHAMHADCLQELRRYLKSGVVLRRTVPPMVNVTSGGSGGGSVTRGDTFTQSSGGSGGGVTCRASGFYPWNITLSWRQDGVSLSHDTQQWGDVLPDGNGTYQTWVATRISGGSGGGSVTRGDTFTQSSGGSGGGCYMEHSGNHSTHPVPSGK
B2: soluble MICA generated from pKK128 (loop 1 extended 5.1sp, loop 3 extended 3.2sp) (designed binder)
chain: B1 chain with V279T, T280S, T284H, F285P, T286R, Q287T, S288Q
notes: From pKK115 (from pKK46: His6, Glu125); secreted by 293T cells; also called 1-5.1sp/3-3.2sp
B3: soluble MICA generated from pKK130 (loop 1 extended 5.1sp, loop 3 extended 5.3sp) (designed binder)
chain: B1 chain with V279H, T280L, R281A, G282R, D283G, T284D, F285D, T286L, Q287T, S288Y
notes: From pKK115 (from pKK46: His6, Glu125); secreted by 293T cells; also called 1-5.1sp/3-5.3sp
B4: M13 phage pKK106 displaying wild type MICA α3 domain fused to pIII (other)
chain: TVPPMVNVTRSEASEGNITVTCRASGFYPWNITLSWRQDGVSLSHDTQQWGDVLPDGNGTYQTWVATRICQGEEQRFTCYMEHSGNHSTHPVPSGK
notes: also called WT; not shown: C-terminal portion of M13 gene III protein, fused at codon position 198
B5: M13 phage pKK93 displaying MICA α3 domain with loop 1 insert 3.2 (designed binder)
chain: TVPPMVNVTRTSRGDHPRTQVTCRASGFYPWNITLSWRQDGVSLSHDTQQWGDVLPDGNGTYQTWVATRICQGEEQRFTCYMEHSGNHSTHPVPSGK
notes: also called 1-3.2; not shown: C-terminal portion of M13 gene III protein, fused at codon position 198
B6: M13 phage pKK96 displaying MICA α3 domain with loop 1 insert 5.1 (designed binder)
chain: B4 chain with R10V, S11T, E12R, A13G, S14D, E15T, G16F, N17T, I18Q, T19S
notes: also called 1-5.1; not shown: C-terminal portion of M13 gene III protein, fused at codon position 198
B7: M13 phage pKK97 displaying MICA α3 domain with loop 1 insert 5.2 (designed binder)
chain: TVPPMVNVTRGDTFTQSVTCRASGFYPWNITLSWRQDGVSLSHDTQQWGDVLPDGNGTYQTWVATRICQGEEQRFTCYMEHSGNHSTHPVPSGK
notes: also called 1-5.2; not shown: C-terminal portion of M13 gene III protein, fused at codon position 198
B8: M13 phage pKK101 displaying MICA α3 domain with loop 1 insert 3.3sp (designed binder)
chain: TVPPMVNVTSGGSGGGSRVPRGDSDLTSGGSGGGVTCRASGFYPWNITLSWRQDGVSLSHDTQQWGDVLPDGNGTYQTWVATRICQGEEQRFTCYMEHSGNHSTHPVPSGK
notes: also called 1-3.3sp; not shown: C-terminal portion of M13 gene III protein, fused at codon position 198
B9: M13 phage pKK102 displaying MICA α3 domain with loop 1 insert 5.1sp (designed binder)
chain: B8 chain with R18V, V19T, P20R, R21G, G22D, D23T, S24F, D25T, L26Q, T27S
notes: also called 1-5.1sp; not shown: C-terminal portion of M13 gene III protein, fused at codon position 198

How the values were obtained:
the targeted integrin = experiment: cell-based or functional assay
integrin αVβ5 [1] = biological target: T1, integrin αVβ5 (UniProt P06756 31-992; P18084 24-719); experiment: ELISA, coated integrin, anti-MICA-HRP
T1 construct: Coated on the ELISA plate
Method: (§1) ELISA assays of the integrin target-binding of soluble MICA molecules generated from pKK128-131 were performed as follows. After the respective integrins were adhered to the bottoms of the wells of the ELISA plate, the wells were washed and blocked. Each sample (100 μl) of culture supernatant was added to wells containing αVβ3 or αVβ5, incubated and washed. The soluble MICA molecules captured by the integrins were detected by HRP-conjugated antibody to human MICA developed with Ultra TMB-ELISA substrate and the optical densities read. The quantity of soluble MICA in each sample was determined by the MICA-specific ELISA.

integrin αVβ3 [2] = biological target: T2, integrin αVβ3 (UniProt P06756 31-992; P05106 27-718); experiment: ELISA, coated integrin, anti-MICA-HRP
T2 construct: Coated on the ELISA plate
Method: as §1

integrin αVβ5 [3] = biological target: T1, integrin αVβ5; experiment: phage ELISA, coated integrin, anti-M13-HRP
Method: (§2) The phage vectors were independently transformed into NEBαF′tet competent E. coli cells. Phages produced by the transformed cells were tittered and their concentrations adjusted by dilution to 10¹³ per ml. The ability of the soluble MICA molecules in each of the phage preparations was assayed by an ELISA using the intended target proteins, integrin αVβ3 or αVβ5, as capture agents on the ELISA plate. After the respective integrins were adhered to the bottoms of the wells of the ELISA plate, the wells were washed and blocked, as well known in the field. Each sample (100 μl) of phage preparation was added to wells containing αVβ3 or αVβ5, incubated and washed. The phages captured by the integrins were detected by HRP-conjugated antibody to the M13 phage coat developed with Ultra TMB-ELISA substrate and the optical densities read.

integrin αVβ3 [4] = biological target: T2, integrin αVβ3; experiment: phage ELISA, coated integrin, anti-M13-HRP
Method: as §2

integrin αVβ5 [5] = biological target: T1, integrin αVβ5; experiment: phage ELISA, coated integrin, anti-M13-HRP; remark: listed apart in the source
Method: (§3) The ELISA assays of the integrin target-binding of M13 phages displaying α3 domains with binding peptide inserts grafted into more than one loop were performed as follows. After the respective integrins were adhered to the bottoms of the wells of the ELISA plate, the wells were washed and blocked. Each sample (100 μl) of phage preparation was added to wells containing αVβ3 or αVβ5, incubated and washed. The phages captured by the integrins were detected by HRP-conjugated antibody to the M13 phage coat developed with Ultra TMB-ELISA substrate and the optical densities read.

integrin αVβ3 [6] = biological target: T2, integrin αVβ3; experiment: phage ELISA, coated integrin, anti-M13-HRP; remark: listed apart in the source
Method: as §3

T2 sequence (P06756 31-992, chain 1 of 2): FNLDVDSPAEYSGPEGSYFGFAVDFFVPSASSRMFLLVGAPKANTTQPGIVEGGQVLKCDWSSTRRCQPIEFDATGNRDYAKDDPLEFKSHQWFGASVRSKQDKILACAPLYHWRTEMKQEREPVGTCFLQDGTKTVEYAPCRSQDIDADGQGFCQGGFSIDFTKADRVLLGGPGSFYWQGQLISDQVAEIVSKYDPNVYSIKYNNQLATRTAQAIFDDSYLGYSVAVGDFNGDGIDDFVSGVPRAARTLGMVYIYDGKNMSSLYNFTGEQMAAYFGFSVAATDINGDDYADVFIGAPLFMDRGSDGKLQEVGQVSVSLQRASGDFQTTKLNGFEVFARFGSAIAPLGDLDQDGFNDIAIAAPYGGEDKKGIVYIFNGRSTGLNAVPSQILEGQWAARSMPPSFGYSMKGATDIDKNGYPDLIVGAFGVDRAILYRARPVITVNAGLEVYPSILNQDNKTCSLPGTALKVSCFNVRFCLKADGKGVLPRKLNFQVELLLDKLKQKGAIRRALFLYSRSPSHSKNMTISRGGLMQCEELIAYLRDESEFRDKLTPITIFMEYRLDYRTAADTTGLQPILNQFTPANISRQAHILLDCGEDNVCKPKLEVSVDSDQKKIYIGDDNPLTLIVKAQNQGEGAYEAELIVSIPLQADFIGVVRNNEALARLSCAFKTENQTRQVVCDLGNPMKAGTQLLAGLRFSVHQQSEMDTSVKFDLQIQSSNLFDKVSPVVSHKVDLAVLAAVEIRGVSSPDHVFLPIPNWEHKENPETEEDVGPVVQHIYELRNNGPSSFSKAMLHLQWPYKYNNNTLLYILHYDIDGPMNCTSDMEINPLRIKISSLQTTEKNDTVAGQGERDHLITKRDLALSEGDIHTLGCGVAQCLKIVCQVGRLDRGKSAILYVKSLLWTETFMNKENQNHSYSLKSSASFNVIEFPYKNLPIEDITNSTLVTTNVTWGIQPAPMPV
T2 sequence (P05106 27-718, chain 2 of 2): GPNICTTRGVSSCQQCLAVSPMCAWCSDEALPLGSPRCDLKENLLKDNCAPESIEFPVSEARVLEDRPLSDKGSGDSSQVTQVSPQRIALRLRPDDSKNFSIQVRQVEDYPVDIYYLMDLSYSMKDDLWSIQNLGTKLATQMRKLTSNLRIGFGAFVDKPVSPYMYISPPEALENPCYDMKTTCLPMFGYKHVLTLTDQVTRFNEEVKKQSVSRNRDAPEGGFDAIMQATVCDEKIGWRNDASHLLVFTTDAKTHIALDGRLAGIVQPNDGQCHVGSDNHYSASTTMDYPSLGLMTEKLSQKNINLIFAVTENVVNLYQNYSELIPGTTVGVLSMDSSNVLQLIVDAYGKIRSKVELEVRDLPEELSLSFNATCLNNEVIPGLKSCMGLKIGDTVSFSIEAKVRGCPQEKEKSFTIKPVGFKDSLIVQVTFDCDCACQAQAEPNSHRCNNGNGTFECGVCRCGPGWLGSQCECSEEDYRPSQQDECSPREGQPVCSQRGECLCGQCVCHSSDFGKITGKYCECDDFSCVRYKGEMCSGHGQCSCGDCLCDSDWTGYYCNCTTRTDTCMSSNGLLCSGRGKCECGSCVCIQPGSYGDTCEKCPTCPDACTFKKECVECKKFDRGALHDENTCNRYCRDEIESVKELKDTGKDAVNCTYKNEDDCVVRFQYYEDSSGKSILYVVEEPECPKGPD
T1 sequence (P06756 31-992, chain 1 of 2): as the sequence (P06756 31-992, chain 1 of 2) above
T1 sequence (P18084 24-719, chain 2 of 2): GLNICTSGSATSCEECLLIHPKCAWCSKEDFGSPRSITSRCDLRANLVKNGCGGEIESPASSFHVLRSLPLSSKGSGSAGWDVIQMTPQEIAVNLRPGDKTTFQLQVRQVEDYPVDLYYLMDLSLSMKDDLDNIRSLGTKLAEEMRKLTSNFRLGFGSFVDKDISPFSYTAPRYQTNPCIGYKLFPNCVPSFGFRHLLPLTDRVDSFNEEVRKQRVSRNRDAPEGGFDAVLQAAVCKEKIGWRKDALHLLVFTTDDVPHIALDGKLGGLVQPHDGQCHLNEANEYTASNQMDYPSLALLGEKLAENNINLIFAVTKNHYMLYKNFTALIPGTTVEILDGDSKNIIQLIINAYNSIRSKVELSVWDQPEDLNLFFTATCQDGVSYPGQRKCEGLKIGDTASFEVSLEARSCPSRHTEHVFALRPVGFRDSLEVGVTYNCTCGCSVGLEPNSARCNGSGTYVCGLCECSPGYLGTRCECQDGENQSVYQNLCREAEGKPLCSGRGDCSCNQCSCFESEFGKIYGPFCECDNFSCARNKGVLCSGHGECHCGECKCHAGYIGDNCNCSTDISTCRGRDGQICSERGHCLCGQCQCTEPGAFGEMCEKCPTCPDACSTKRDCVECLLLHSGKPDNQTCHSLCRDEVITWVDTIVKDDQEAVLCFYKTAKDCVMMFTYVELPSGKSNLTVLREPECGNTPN

Row | Binder | αvβ5 signal (integrin αVβ5 [3]) [OD] | αvβ3 signal (integrin αVβ3 [4]) [OD] | αvβ5 signal (integrin αVβ5 [5]) [OD] | αvβ3 signal (integrin αVβ3 [6]) [OD] | other results
1 | B1 | – | – | – | – | green fluorescent signal from live MCF cells; 64 pg targeted MICA, NK 5:1 (the targeted integrin): 5180 fluorescence; green fluorescent signal from live MCF cells; 64 pg targeted MICA, NK 10:1 (the targeted integrin): 3700 fluorescence; green fluorescent signal from live MCF cells; 64 pg targeted MICA, no NK cells (the targeted integrin): 5030 fluorescence; green fluorescent signal from live MCF cells; 128 pg targeted MICA, NK 5:1 (the targeted integrin): 3460 fluorescence; green fluorescent signal from live MCF cells; 128 pg targeted MICA, NK 10:1 (the targeted integrin): 2190 fluorescence; red fluorescent signal from (dead) MCF cells; 64 pg targeted MICA, NK 5:1 (the targeted integrin): 27 fluorescence; red fluorescent signal from (dead) MCF cells; 64 pg targeted MICA, NK 10:1 (the targeted integrin): 31 fluorescence; red fluorescent signal from (dead) MCF cells; 64 pg targeted MICA, no NK cells (the targeted integrin): 19.9 fluorescence; red fluorescent signal from (dead) MCF cells; 128 pg targeted MICA, NK 5:1 (the targeted integrin): 25.6 fluorescence; red fluorescent signal from (dead) MCF cells; 128 pg targeted MICA, NK 10:1 (the targeted integrin): 41 fluorescence
2 | B2 | – | – | – | – | αvβ5 signal (integrin αVβ5 [1]): 1 OD; αvβ5 signal/ng (integrin αVβ5 [1]): 28.3 signal/ng MICA; αvβ3 signal (integrin αVβ3 [2]): 0.811 OD; αvβ3 signal/ng (integrin αVβ3 [2]): 22.9 signal/ng MICA
3 | B3 | – | – | – | – | αvβ5 signal (integrin αVβ5 [1]): 0.832 OD; αvβ5 signal/ng (integrin αVβ5 [1]): 26.9 signal/ng MICA; αvβ3 signal (integrin αVβ3 [2]): 0.606 OD; αvβ3 signal/ng (integrin αVβ3 [2]): 19.6 signal/ng MICA
4 | B4 | 0 | 0 | 0 | 0 | –
5 | B5 | 0.291 | 0.284 | 0.774 | 0.616 | –
6 | B6 | 2.42 | 1.64 | – | – | –
7 | B7 | 2.59 | 1.55 | – | – | –
8 | B8 | 1.23 | 1.49 | – | – | –
9 | B9 | 0.771 | 1.02 | 1.5 | 1.45 | –
